Experimental data from patent publication US20210015858A1 (I MAB BIOPHARMA US, published 2021).
Values belong to the binder of their own block, whether it stands above or below them.

Legend:
[1] = molecular target: T1, recombinant His-tagged human TIGIT-ECD protein (human, UniProt Q495A1 22-141); assay: SPR affinity ranking (Biacore T200)
T1 construct: extracellular domain; The ELISA text only says His-tagged human TIGIT; also called His-tagged TIGIT; human TIGIT protein; not shown: His tag
T1 sequence (looked up): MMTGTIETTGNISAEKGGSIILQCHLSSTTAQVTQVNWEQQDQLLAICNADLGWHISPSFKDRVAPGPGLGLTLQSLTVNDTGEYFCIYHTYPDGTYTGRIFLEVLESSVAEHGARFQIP

[2] = molecular target: T1, recombinant His-tagged human TIGIT-ECD …; assay: SPR (Biacore T200), antibody captured, His-tagged TIGIT-ECD injected
Method: The anti-TIGIT antibodies were captured using anti-human Fc antibody or Protein A which were coated on the chip. Serial concentrations of His-tagged human TIGIT-ECD protein (0-8 nM) were injected over capture antibodies at the flow rate of 30 μl/min. The dissociation phases were 600 s or 1200 s.

[3] = molecular target: T2, human TIGIT expressed on cell surface (human, UniProt Q495A1 22-244); assay: cell-based or functional assay
T2 sequence (looked up): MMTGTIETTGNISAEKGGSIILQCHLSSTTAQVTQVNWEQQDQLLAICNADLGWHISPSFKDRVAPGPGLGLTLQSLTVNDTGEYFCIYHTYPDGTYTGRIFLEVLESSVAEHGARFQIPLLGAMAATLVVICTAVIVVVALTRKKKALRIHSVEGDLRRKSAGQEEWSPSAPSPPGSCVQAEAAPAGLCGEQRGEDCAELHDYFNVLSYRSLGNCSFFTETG

[4] = molecular target: T1, recombinant His-tagged human TIGIT-ECD …; assay: SPR affinity ranking (Biacore 8K or T200)
[5] = molecular target: T1, recombinant His-tagged human TIGIT-ECD …; assay: SPR (Biacore T200), antibody captured, His-tagged TIGIT-ECD injected; remark: listed apart in the source
Method: The binding of the antibodies to recombinant His-tagged human TIGIT-ECD protein was examined by Biacore T200 using a capture method. The anti-TIGIT antibodies were captured using anti-human Fc antibody or Protein A which were coated on chip. The serial concentrations of his-tagged human TIGIT-ECD protein (0-8 nM) were injected over capture antibodies at the flow rate of 30 μl/min. The dissociation phases were 600 s or 1200 s.

[6] = molecular target: T3, His-tagged cyno-TIGIT (cyno, UniProt A0A7N9I9V4 89-209); assay: ELISA
T3 construct: also called cyno TIGIT protein; not shown: His tag
T3 sequence (A0A7N9I9V4 entry or part of it): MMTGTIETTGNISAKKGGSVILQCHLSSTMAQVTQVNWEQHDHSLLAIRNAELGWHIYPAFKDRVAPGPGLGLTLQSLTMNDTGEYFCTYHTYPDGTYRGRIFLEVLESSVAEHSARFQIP

- Kd [1]: 2.15 nM
- koff [1]: 0.00107 s⁻¹
- kon [1]: 496000 M⁻¹ s⁻¹
B1: 101E1HM-1 (antibody, V domains shown)
VH: QVQLQESGPGLVKPSQTLSLTCTVSGYSITDDYAWNWIRQPPGKGLEWMGYISYSGHTKYNPSLKSRVTISRDTSKNQFSLKLSSVTAADTAVYYCARKYYGGWFPRWGQGTLVTVSS
VL: DIQMTQSPSSLSASVGDRVTITCKASQDVFTAVAWYQQKPGKAPKLLIYSASYRPTGVPSRFSGSGSGTDFTFTISSLQPEDFATYYCQQSYSTPWTFGQGTRLEIK

- Kd [1]: 1.29 nM
- koff [1]: 0.00209 s⁻¹
- kon [1]: 1.63e+06 M⁻¹ s⁻¹
B2: 101E1HM-5 (antibody, V domains shown)
VH: QVQLQESGPGLVKPSQTLSLTCTVSGYSITDDYAWNWIRQPPGKGLEWMGYISYSGITRYNPSLKSRVTISRDTSKNQFSLKLSSVTAADTAVYYCARKYYGGWFPQWGQGTLVTVSS
VL: DIQMTQSPSSLSASVGDRVTITCKASQDVFTAVAWYQQKPGKAPKLLIYSASYRDTGVPSRFSGSGSGTDFTFTISSLQPEDFATYYCQQSYSTPWTFGQGTRLEIK

- Kd [1]: 3.08 nM
- koff [1]: 0.00439 s⁻¹
- kon [1]: 1.43e+06 M⁻¹ s⁻¹
B3: 101E1HM-4 (antibody, V domains shown)
VH: QVQLQESGPGLVKPSQTLSLTCTVSGYSITDDYAWNWIRQPPGKGLEWMGYISYSGHTRYNPSLKSRVTISRDTSKNQFSLKLSSVTAADTAVYYCARKYYGSWFPDWGQGTLVTVSS
VL: DIQMTQSPSSLSASVGDRVTITCKASQDVFTAVAWYQQKPGKAPKLLIYSASYRMTGVPSRFSGSGSGTDFTFTISSLQPEDFATYYCQQSYSTPWTFGQGTRLEIK

- Kd [1]: 0.554 nM
- koff [1]: 0.000717 s⁻¹
- kon [1]: 1.29e+06 M⁻¹ s⁻¹
B4: 101E1HM-3 (antibody, V domains shown)
VH: QVQLQESGPGLVKPSQTLSLTCTVSGYSITDDYAWNWIRQPPGKGLEWMGYISYSGDTKYNPSLKSRVTISRDTSKNQFSLKLSSVTAADTAVYYCARKYYGGWFPVWGQGTLVTVSS
VL: DIQMTQSPSSLSASVGDRVTITCKASQDVFTAVAWYQQKPGKAPKLLIYSASNRNTGVPSRFSGSGSGTDFTFTISSLQPEDFATYYCQQQYSTPWTFGQGTRLEIK

- Kd [1]: 1.48 nM
- koff [1]: 0.00191 s⁻¹
- kon [1]: 1.29e+06 M⁻¹ s⁻¹
B5: 101E1HM-2 (antibody, V domains shown)
VH: QVQLQESGPGLVKPSQTLSLTCTVSGYSITDDYAWNWIRQPPGKGLEWMGYISYSGNTMYNPSLKSRVTISRDTSKNQFSLKLSSVTAADTAVYYCARKYYGGWFPIWGQGTLVTVSS
VL: DIQMTQSPSSLSASVGDRVTITCKASQDVFTAVAWYQQKPGKAPKLLIYSASYRHTGVPSRFSGSGSGTDFTFTISSLQPEDFATYYCQQSYSTPWTFGQGTRLEIK

- Kd [2]: 0.0822 nM
- koff [2]: 0.000154 s⁻¹
- kon [2]: 1.87e+06 M⁻¹ s⁻¹
- maximum ADCC activity (LDH release, NK92-CD16a effector cells on Jurkat-TIGIT target cells) [3]: 50%
- Kd [4]: 0.0716 nM
- koff [4]: 0.000189 s⁻¹
- kon [4]: 2.64e+06 M⁻¹ s⁻¹
- Kd [5]: 0.0822 nM
- koff [5]: 0.000154 s⁻¹
- kon [5]: 1.87e+06 M⁻¹ s⁻¹
B6: 350D10 (antibody, human IgG1, V domains shown)
VH: EVKLVESGGALVQPGGSLKLSCAASGFTFSDYYMYWVRQTPEKRLEWVASITKGGGSTYYPDTLKGRFTISRDNAKNTLYLQMSRLKSEDTDMYYCARQSSYDFVMDYWGQGTSVTVSS
VL: DIVMTQSHKFMSTSVGDRVTITCKASQDVDTAVAWYQQKPGQSPKLLIYWASARHTGVPDRFTGSGSGTDFTLTISNVQSEDLADYFCQQYSNYPLTFGVGTKLELK
notes: Mouse hybridoma clone; also called 350D10-chimeric

- Kd [2]: 0.374 nM
- koff [2]: 0.000167 s⁻¹
- kon [2]: 446000 M⁻¹ s⁻¹
- maximum ADCC activity (LDH release, NK92-CD16a effector cells on Jurkat-TIGIT target cells) [3]: 50%
- Kd [4]: 0.296 nM
- koff [4]: 3.25e-05 s⁻¹
- kon [4]: 110000 M⁻¹ s⁻¹
- Kd [5]: 0.252 nM
- koff [5]: 0.000156 s⁻¹
- kon [5]: 619000 M⁻¹ s⁻¹
B7: 90D9 (antibody, V domains shown)
VH: EVQLQQSGPELVKPGASVKISCKTSGYTFTENTMHWVKQSHGKSLEWIGGINPNQGGNRNNQKFKGKATLTVDKSSSTAYMELRSLTSEDSAVYYCARSGLRDYAMDYWGQGTSVTVSS
VL: DIVMTQSHKFMSTSVGDRVSITCKASQHVSTAVVWYQQKPGQSPKLLIYSPSYRYTGVPDRFTGSGSGTDFTFTISSVQAEDLAVYYCQQHYSTPWTFGGGTKLEIK
notes: Mouse hybridoma clone; also called 90D9-chimeric

- apparent Kd (pooled screen) [2]: 0.362 nM
- apparent koff (pooled screen) [2]: 0.00105 s⁻¹
- apparent kon (pooled screen) [2]: 2.9e+06 M⁻¹ s⁻¹
- binding result [6]: no binding
- maximum ADCC activity (LDH release, NK92-CD16a effector cells on Jurkat-TIGIT target cells) [3]: 50%
- apparent Kd (pooled screen) [4]: 0.487 nM
- apparent koff (pooled screen) [4]: 0.00114 s⁻¹
- apparent kon (pooled screen) [4]: 2.34e+06 M⁻¹ s⁻¹
- apparent Kd (pooled screen) [5]: 0.362 nM
- apparent koff (pooled screen) [5]: 0.00105 s⁻¹
- apparent kon (pooled screen) [5]: 2.9e+06 M⁻¹ s⁻¹
B8: 101E1 (antibody, human IgG1, V domains shown)
VH: DVQLQESGPGLVKPSQSLSLTCTVTGYSITSDYAWNWIRQFPGNKLEWMGYISYSGNTRYNPSLKSRISITRDTSKNQFFLQFNSVTTEDTATYYCSRKYYGSWFPYWGQGTLVTVSA
VL: DIVMTQSHKFMSTSVGDRVSITCKASQDVFTAVAWYQQKPGQSPKLLIYSASYRYTGVPDRFTGSGSGTDFTFTISSVQAEDLAVYYCQQHYSTPWTFGGGTRLEIK
notes: Mouse hybridoma clone; also called 101E1-chimeric

- binding result [6]: no binding
B9: 143B6 (antibody, human IgG1, V domains shown)
VH: EVQLVESGGGLVMPGGSLKLSCAASGFTFSGFVMSWVRQTPEKRLEWVATINDAGTYTYYSDNLKGRFTISRDNAKNNLYLQMSHLKSEDAGMYYCARDGGLRAWFPYWGPGTLVTVSA
VL: DIQLTQSPASLSASVGETVTITCRASENIYSYLAWYQLKQGKSPQLLVFNTKTLAEGVPSRFSGSGSGTQFSLRIDSLQLEDFGSFYCQHHIGSPRTFGGGTTLEIR
notes: Mouse hybridoma clone

- Kd [5]: 0.242 nM
- koff [5]: 0.000453 s⁻¹
- kon [5]: 1.87e+06 M⁻¹ s⁻¹
B10: 222H4 (antibody, human IgG1, V domains shown)
VH: EVQLQQSGPELVKPGASVKISCKTSGYTFSDYTLHWVKQSHGKNLEWIGGFNPNNGGTNYNQKFKVKASLTIDKSSNTVYMELRSLSSEDSAVYYCARNWAFDYWGQGTTLTVSS
VL: DIVMTQSHKIMSTSLGDRVNITCKASQHVSTAVAWYQQRPGQSPRLLIYSASYRHTGVPDRFTGSGSGTDITFTISSVQTEDLAVYYCQQYYTTPWTFGGGTKLEIK
notes: Mouse hybridoma clone

- binding result [6]: no binding
B11: 221F11 (antibody, human IgG1, V domains shown)
VH: EIQLQQTGPELVKPGASVNISCKASGYSFTDYIMIWVKQSHGKSLEWIGNIHPYFGNSHYNLKFKGKATLTVDKSSTTAYMQLNSLTSEDSAVYYCARRGITSAHFDYWGQGTTLTVSS
VL: DIVLTQSPASLAVSLGQRATISCRASKSVSTSGYSYMHWYQQKPGQPPKLLIYRASNLESGVPARFSGSGSGTDFTLNIHPVEEEDAATYYCQHSGDLPWTFGGGTKLEIK
notes: Mouse hybridoma clone

- binding result [6]: no binding
B12: 116H8 (antibody, human IgG1, V domains shown)
VH: EFQLQQSGPELVKPGASVKISCRASGYSFTAYSMNWVQQTNGKSLEWIGVINPKFGTINYNQKFKGKATLTVDQSSSAAYIQLNSLTSEDSAVYFCARNGNFAWYFDVWGTGTTVTVSS
VL: DIQMTQSPASLSASVGETVTITCRASENIFSYLAWYQQKQGKSPQLLVYNAKTLPEGVPSRFSGSGSGTQFSLKINSLQSEDFGSYYCQHHYGVPWTFGGGTKLEIK
notes: Mouse hybridoma clone

- Kd [5]: 0.024 nM
- koff [5]: 0.000107 s⁻¹
- kon [5]: 4.45e+06 M⁻¹ s⁻¹
B13: 167F7 (antibody, human IgG1, V domains shown)
VH: EFQLQQSGPELVKPGASVKISCRASGYSFTAYSMNWVQQTNGKSLEWIGVINPKFGTINYNQKFKDKATLTVDHSSSAAYMQLNSLTSEDSAVYFCARNGNFAWYFDVWGTGTTVTVSS
VL: DIQMTQSPASLSASVGETVTITCRASESIFSYLAWYQQKQGKSPQLLAYNAETLAEGVPSRFSGSGSGTQFSLKINSLQSEDFGIYYCQHHFGVPWTFGGGTKLEIK
notes: Mouse hybridoma clone

- binding result [6]: no binding
B14: 131A12 (antibody, human IgG1, V domains shown)
VH: EFQLQQSGPELVKPGASVKISCRASGYSFTAYSMNWVQQTNGKSLEWIGVINPKFGTTNYNQKFRDKATLTVDHSSSAAYMQLNSLTSEDSAVYFCARNGNFAWYFDVWGTGTTVTVSS
VL: DIQMTQSPASLSASVGETVTITCRASENIFSYLAWYQQKQGKSPQLLAYNAETLAEGVPSRFSGSGSGTQFSLKISSLQSEDFGSYYCQHHFGVPWTFGGGTNLEIK
notes: Mouse hybridoma clone
